The record followed here is EP3932948A1 (Sunshine Guojian Pharmaceutical (Shanghai) Co., Ltd., dated 2022).

Assay [1] has as its target T1, full-length human LAG-3 on CHO-S cells (CHO-S-LAG-3) (human, UniProt P18627 23-525).
T1 construct: whole, on cells
T1 sequence (looked up): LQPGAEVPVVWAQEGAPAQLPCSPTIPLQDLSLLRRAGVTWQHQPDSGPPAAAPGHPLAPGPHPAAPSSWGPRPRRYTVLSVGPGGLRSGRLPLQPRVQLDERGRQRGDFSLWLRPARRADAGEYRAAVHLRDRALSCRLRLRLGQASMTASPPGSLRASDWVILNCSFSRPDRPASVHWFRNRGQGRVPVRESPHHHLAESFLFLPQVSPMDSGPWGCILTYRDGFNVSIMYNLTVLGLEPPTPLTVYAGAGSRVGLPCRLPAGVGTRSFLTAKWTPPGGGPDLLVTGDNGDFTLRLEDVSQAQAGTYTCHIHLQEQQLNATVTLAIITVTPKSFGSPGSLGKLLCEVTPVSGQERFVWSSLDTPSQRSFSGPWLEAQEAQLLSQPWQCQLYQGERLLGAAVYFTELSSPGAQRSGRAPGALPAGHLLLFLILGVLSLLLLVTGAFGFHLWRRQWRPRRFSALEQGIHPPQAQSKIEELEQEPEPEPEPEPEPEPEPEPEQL
Put plainly: flow cytometry, blocking of Biotin-FGL1-hFc (2 ug/ml) binding to CHO-S-LAG-3 cells.

Assay [2] deals with T2, LAG-3 on the cell surface of SEA-activated human PBMC (activated T cells) (human, UniProt P18627 23-525).
T2 construct: whole, on cells
T2 sequence (looked up): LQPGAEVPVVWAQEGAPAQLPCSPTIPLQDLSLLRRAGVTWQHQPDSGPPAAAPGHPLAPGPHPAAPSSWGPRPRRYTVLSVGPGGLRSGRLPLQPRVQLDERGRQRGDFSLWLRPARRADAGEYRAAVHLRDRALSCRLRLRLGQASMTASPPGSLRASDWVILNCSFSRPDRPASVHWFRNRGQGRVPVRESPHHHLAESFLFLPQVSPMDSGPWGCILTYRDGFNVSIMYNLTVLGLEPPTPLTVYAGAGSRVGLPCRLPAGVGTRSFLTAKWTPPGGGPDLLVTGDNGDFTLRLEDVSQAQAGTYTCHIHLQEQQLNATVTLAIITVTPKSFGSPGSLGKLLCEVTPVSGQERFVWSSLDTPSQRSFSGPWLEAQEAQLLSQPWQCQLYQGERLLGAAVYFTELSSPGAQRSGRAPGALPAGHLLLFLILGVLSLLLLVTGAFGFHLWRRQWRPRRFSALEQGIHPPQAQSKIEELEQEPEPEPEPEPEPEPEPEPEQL
In words: flow cytometry, biotinylated antibody on SEA-activated human PBMC, PE-Streptavidin detection.

In assay [3] the target is T3, LAG-3-ECD-His (LAG-3 extracellular segment with His tag, purchased from Sino Biological Inc.) (UniProt P18627 23-450).
T3 construct: extracellular domain; not shown: His tag
T3 sequence (looked up): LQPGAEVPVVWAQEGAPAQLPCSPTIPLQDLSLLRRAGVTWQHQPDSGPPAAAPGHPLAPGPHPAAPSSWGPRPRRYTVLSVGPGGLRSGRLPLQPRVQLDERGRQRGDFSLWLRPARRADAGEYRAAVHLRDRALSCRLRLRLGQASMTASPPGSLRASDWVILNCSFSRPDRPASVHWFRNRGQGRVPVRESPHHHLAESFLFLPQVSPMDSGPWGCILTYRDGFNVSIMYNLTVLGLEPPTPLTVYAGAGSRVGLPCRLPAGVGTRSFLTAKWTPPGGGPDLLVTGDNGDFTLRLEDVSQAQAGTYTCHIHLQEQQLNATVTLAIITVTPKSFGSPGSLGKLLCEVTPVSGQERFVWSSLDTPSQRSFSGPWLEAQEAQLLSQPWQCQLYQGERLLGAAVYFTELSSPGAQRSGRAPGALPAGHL
In words: ELISA, plate coated with LAG-3-ECD-His (10 ng/well), anti-human IgG (Fc) detection.

Assay [4] concerns the target T2, LAG-3 on the cell surface of …. Put plainly: cell-based or functional assay.
In assay [5] the target is T4, recombinant LAG-3 (purchased from SinoBiological, Cat. No.: 16498-H08H) (human, UniProt P18627 23-450).
T4 construct: also called human LAG-3
T4 sequence (looked up): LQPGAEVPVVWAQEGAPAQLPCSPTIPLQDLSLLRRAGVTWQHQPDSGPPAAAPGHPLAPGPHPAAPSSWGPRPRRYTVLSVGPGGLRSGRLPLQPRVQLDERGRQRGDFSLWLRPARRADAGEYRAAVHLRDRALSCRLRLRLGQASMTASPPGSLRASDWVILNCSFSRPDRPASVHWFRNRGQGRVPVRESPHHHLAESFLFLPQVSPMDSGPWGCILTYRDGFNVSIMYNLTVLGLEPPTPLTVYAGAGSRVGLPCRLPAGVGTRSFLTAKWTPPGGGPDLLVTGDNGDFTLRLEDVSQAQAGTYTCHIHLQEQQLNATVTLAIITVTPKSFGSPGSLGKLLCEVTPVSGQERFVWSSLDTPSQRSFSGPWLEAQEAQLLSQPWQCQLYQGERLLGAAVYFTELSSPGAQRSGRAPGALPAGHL
Put plainly: SPR (Biacore 8K), antibody captured on Protein A chip, recombinant LAG-3 as analyte.

B1: 5E7-Hu-IgG4 (antibody, V domains shown)
VH: EVQLVESGGGLVKPGGSLRLSCAASGFTFSDDYMAWFRQAPGKRLEWVASISHGGDYIYYADNLKGRFTISRDNAKNSLYLQMNSLRAEDTAVYFCSRDRRSIDYWGQGTLVTVSS
VL: DIQMTQSPSSLSASVGDRVTITCRASQDISNYLSWYQQKPGKTIKLLIYYTSRLHSGVPSRFSGSGSGTDYTFTISSLQPEDIATYFCQQGKTLPYTFGQGTKVEIKR
modifications: Biotinylated with NHS-biotin only for the flow cytometry of Example 7 (positions not defined).
notes: also called humanized antibody No. 5E7; 5E7-Hu-IgG4-HC + 5E7-Hu-LC
In the case of B1, the half-inhibitory concentration (IC50) in assay [1] stood at 0.0977 µg/mL. The molecule further displayed an EC50 in assay [2] of 0.0531 µg/mL. Further, the EC50 in assay [3] came out at 0.00908 µg/mL. Moreover, in assay [4], the “EC50 of enhancing the secretion of IL-2 by SEA-stimulated PBMC (Fig. 3A)” value was 0.0781 µg/mL and the “EC50 of enhancing the secretion of IL-2 by SEA-stimulated PBMC (Fig. 3B)” value stood at 0.00307 µg/mL. Moreover, in assay [5], the Kd turned out to be 4.17 pM, the koff was determined as 1.84e-05 s⁻¹ and the kon amounted to 4.41e+06 M⁻¹ s⁻¹.
